Experimental data as given in doi:10.1101/2021.03.09.434456 (bioRxiv, 2021).

Columns and labels:
AUC = biological target: the molecule itself; experiment: AUC
AUC + SEC = biological target: the molecule itself; experiment: AUC + SEC
crystal structure = biological target: the molecule itself; experiment: crystal structure

B1: mouse Kirrel3 WT ectodomain (domain or fragment, UniProt Q8BR86 22-535, looked up)
chain: LQKRGCCLVLGYMAKDKFRRMNEGQVYSFSQQPQDQVVVSGQPVTLLCAIPEYDGFVLWIKDGLALGVGRDLSSYPQYLVVGNHLSGEHHLKILRAELQDDAVYECQAIQAAIRSRPARLTVLVPPDDPIILGGPVISLRAGDPLNLTCHADNAKPAASIIWLRKGEVINGATYSKTLLRDGKRESIVSTLFISPGDVENGQSIVCRATNKAIPGGKETSVTIDIQHPPLVNLSVEPQPVLEDNIVTFHCSAKANPAVTQYRWAKRGHIIKEASGELYRTTVDYTYFSEPVSCEVTNALGSTNLSRTVDVYFGPRMTSEPQSLLVDLGSDAVFSCAWIGNPSLTIVWMKRGSGVVLSNEKTLTLKSVRQEDAGKYVCRAVVPRVGAGEREVTLTVNGPPIISSTQTQHALHGEKGQIKCFIRSTPPPDRIAWSWKENVLESGTSGRYTVETVNTEEGVISTLTISNIVRADFQTIYNCTAWNSFGSDTEIIRLKEQGSEMKSGAGLEAESVPMA
With B1 the Kd (AUC) was 210 nM, the “stoichiometry N” value (AUC) was 2 and the koff (AUC + SEC) was over 0.001 s⁻¹.

B2: mouse Kirrel3 D1 (domain or fragment)
chain: VYSFSQQPQDQVVVSGQPVTLLCAIPEYDGFVLWIKDGLALGVGRDLSSYPQYLVVGNHLSGEHHLKILRAELQDDAVYECQAIQAAIRSRPARLTVLVP
B2: binds (crystal structure).

B3: mouse Kirrel2 WT ectodomain (domain or fragment, UniProt Q7TSU7 20-507, looked up)
chain: SPHFLQQPEDMVVLLGEEARLPCALGAYRGLVQWTKDGLALGGERDLPGWSRYWISGNSASGQHDLHIKPVELEDEASYECQASQAGLRSRPAQLHVMVPPEAPQVLGGPSVSLVAGVPGNLTCRSRGDSRPAPELLWFRDGIRLDGSSFHQTTLKDKATGTVENTLFLTPSSHDDGATLICRARSQALPTGRDTAVTLSLQYPPMVTLSAEPQTVQEGEKVTFLCQATAQPPVTGYRWAKGGSPVLGARGPRLEVVADATFLTEPVSCEVSNAVGSANRSTALEVLYGPILQAKPKSVSVDVGKDASFSCVWRGNPLPRITWTRMGGSQVLSSGPTLRLPSVALEDAGDYVCRAEPRRTGLGGGKAQARLTVNAPPVVTALQPAPAFLRGPARLQCVVFASPAPDSVVWSWDEGFLEAGSLGRFLVEAFPAPEVEGGQGPGLISVLHISGTQESDFTTGFNCSARNRLGEGRVQIHLGRRDLLPTVR
B3 was tested, and the Kd (AUC) was 900 nM, the “stoichiometry N” value (AUC) was 2 and the koff (AUC + SEC) was over 0.001 s⁻¹.

B4: mouse Kirrel2 D1 (domain or fragment)
chain: PHFLQQPEDMVVLLGEEARLPCALGAYRGLVQWTKDGLALGGERDLPGWSRYWISGNSASGQHDLHIKPVELEDEASYECQASQAGLRSRPAQLHVMVP
B4: binds (crystal structure).
